# Test results as given in the supplement of paper PMC10567573.
# B1: NP_002788.1 (parent)
# chain: DGWIRVSSDNVADLHEKYSGSTP
# Variants of: B1
# Experiment: protein stability index of a GFP-peptide fusion (GPS, HEK-293T) (PSI 1-6); higher = more stable
# Conditions: c terminus: native
# 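Note: lentivirally expressed fusion library, cells FACS-sorted into six equal-sized GFP/DsRed ratio bins, PSI computed from sequencing read fractions per bin weighted by bin number.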
row,Variant,protein stability index
1,Y18S,3.6
2,Y18F,2.44
3,Y18C,3.09
4,Y18L,2.69
5,Y18D,3.64
6,Y18E,3.23
7,Y18R,3.3
8,Y18H,2.68
9,Y18G,3.6
10,Y18A,3.39
11,Y18I,3.11
12,Y18Q,3.46
13,Y18M,2.92
14,Y18T,3.66
15,Y18N,3.13
16,Y18P,4.33
17,Y18K,4.17
18,V11L,2.21
19,V11Y,2.67
20,V11P,2.73
21,V11M,2.64
22,V11N,2.69
23,V11Q,2.38
24,V11T,2.48

row,Variant,protein stability index
1,V11D,2.54
2,V11F,2.37
3,V11H,2.29
4,V11R,1.87
5,V11C,2.41
6,V11S,2.47
7,V11E,1.92
8,V11G,2.7
9,V11K,1.78
10,V11W,2.4
11,V11A,2.53
12,S7E,3.83
13,S7Q,3.86
14,S7D,4.55
15,S7R,4.19
16,S7G,3.63
17,S7T,2.24
18,S7I,2.25
19,S7N,4.02
20,S7V,2.06
21,S7H,3.09
22,S7A,2.32
23,S7C,2.07
24,S7L,2.26

row,Variant,protein stability index
1,S7P,4.54
2,S7Y,2.39
3,S7F,2.45
4,S7W,2.64
5,S7M,2.41
6,S7K,4.58
7,V6T,3.15
8,V6S,3.41
9,V6H,2.18
10,V6G,4.34
11,V6A,2.27
12,V6F,2.77
13,V6Q,2.41
14,V6W,3.04
15,V6K,2.16
16,V6E,3.77
17,V6R,2.13
18,V6C,3
19,V6L,2.78
20,V6Y,2.48
21,V6M,2.31
22,V6P,5.05
23,V6N,2.86
24,V6I,2.21

row,Variant,protein stability index
1,V6D,4.78
2,A12M,2.3
3,A12Q,2.25
4,A12W,2.46
5,A12F,2.32
6,A12P,2.45
7,A12H,2.85
8,A12L,2.88
9,A12C,2.57
10,A12N,2.48
11,A12E,2.52
12,A12I,2.59
13,A12S,2.24
14,A12Y,2.73
15,A12K,2.33
16,A12G,2.68
17,A12V,2.44
18,A12R,2.46
19,A12T,2.43
20,L14D,2.89
21,L14Q,2.89
22,L14S,3.01
23,L14F,1.96
24,L14I,2.35

row,Variant,protein stability index
1,L14N,2.98
2,L14E,2.74
3,L14K,2.37
4,L14W,2.62
5,L14H,2.06
6,L14C,2.92
7,L14R,2.41
8,L14P,2.57
9,L14A,2.84
10,L14G,3.47
11,L14V,2.36
12,L14Y,2.5
13,L14T,2.86
14,L14M,2.65
15,W3L,5.26
16,W3H,5.35
17,W3C,5.49
18,W3Y,5.02
19,W3G,5.28
20,W3K,5.21
21,W3P,5.26
22,W3M,5.35
23,W3Q,5.42
24,W3E,5.43

row,Variant,protein stability index
1,W3I,5.33
2,W3T,5.5
3,W3S,5.54
4,W3R,5.15
5,W3V,5.65
6,W3F,4.08
7,W3D,5.23
8,W3A,5.34
9,W3N,5.39
10,K17W,2.97
11,K17P,3.69
12,K17E,3.47
13,K17L,3.06
14,K17F,3.36
15,K17A,3.52
16,K17I,3.12
17,K17V,3.18
18,K17H,3.24
19,K17M,3.19
20,K17Y,3.34
21,K17G,3.75
22,K17T,3.27
23,K17N,3.33
24,K17C,3.04

row,Variant,protein stability index
1,K17S,3.41
2,K17D,3.58
3,K17Q,3.16
4,I4H,4.58
5,I4K,3.67
6,I4F,4.14
7,I4V,2.17
8,I4N,4.94
9,I4M,3.39
10,I4S,3.47
11,I4G,4.49
12,I4R,3.53
13,I4D,4.94
14,I4L,3.18
15,I4P,5.29
16,I4A,2.92
17,I4C,3.19
18,I4W,3.58
19,I4E,3.9
20,I4Q,2.94
21,I4T,2.81
22,I4Y,4.36
23,N10W,2.42
24,N10D,2.54

row,Variant,protein stability index
1,N10K,2.28
2,N10P,2.58
3,N10Y,2.36
4,N10H,2.22
5,N10S,2.17
6,N10V,2.39
7,N10L,2.69
8,N10G,2.86
9,N10I,2.28
10,N10A,1.84
11,N10E,2.53
12,N10C,2.21
13,N10T,2.37
14,N10M,2.67
15,N10F,2.4
16,N10R,2.04
17,G2M,2.36
18,G2R,2.97
19,G2S,2.13
20,G2Y,2.78
21,G2A,2.25
22,G2K,2.13
23,G2H,2.51
24,G2L,2.54

row,Variant,protein stability index
1,G2T,2.09
2,G2V,2.49
3,G2C,2.21
4,G2N,2.42
5,G2F,2.47
6,G2D,2.9
7,G2Q,2.56
8,G2W,2.27
9,G2E,2.51
10,G2P,2.71
11,H15G,2.71
12,H15N,2.92
13,H15F,2.82
14,H15I,2.68
15,H15W,2.39
16,H15Y,2.42
17,H15S,2.47
18,H15T,2.77
19,H15V,2.4
20,H15D,2.85
21,H15Q,2.76
22,H15C,2.73
23,H15P,3.06
24,H15K,2.77

row,Variant,protein stability index
1,H15M,2.64
2,H15E,2.98
3,H15L,2.66
4,H15R,2.33
5,H15A,2.51
6,D1W,2.8
7,D1F,2.3
8,D1P,2.7
9,D1Q,2.36
10,D1M,2.3
11,D1R,2.44
12,D1T,2.48
13,D1V,2.36
14,D1C,2.23
15,D1A,2.37
16,D1S,2.53
17,D1N,2.33
18,D1I,2.92
19,D1E,2.54
20,D1K,2.09
21,D1L,2.2
22,D1H,2.51
23,D1Y,2.07
24,E16H,2.67

row,Variant,protein stability index
1,E16Q,2.87
2,E16T,2.8
3,E16W,2.65
4,E16S,2.64
5,E16V,2.92
6,E16K,3.12
7,E16R,2.97
8,E16P,3.32
9,E16N,2.95
10,E16F,2.46
11,E16M,2.53
12,E16A,2.5
13,E16I,2.58
14,E16C,2.62
15,E16L,2.76
16,E16G,3.13
17,E16D,2.58
18,E16Y,2.87
19,S8H,2.57
20,S8A,2.31
21,S8C,2.13
22,S8T,2.87
23,S8I,2.32
24,S8Q,2.54

row,Variant,protein stability index
1,S8R,2.31
2,S8W,2.23
3,S8D,2.99
4,S8Y,2.14
5,S8N,2.31
6,S8L,2.28
7,S8F,2.36
8,S8E,2.23
9,S8M,2.41
10,S8P,3.95
11,S8G,2.42
12,S8K,2.68
13,S8V,2.42
14,D9L,2.42
15,D9P,2.25
16,D9A,2.35
17,D9G,2.82
18,D9V,2.54
19,D9E,2.34
20,D9T,2.43
21,D9I,2.27
22,D9Y,2.24
23,D9W,2.19
24,D9F,2.27

row,Variant,protein stability index
1,D9N,2.29
2,D9C,2.4
3,D9K,2.36
4,D9Q,2.41
5,D9R,2.3
6,D9M,2.59
7,D9S,2.74
8,D9H,2.59
9,R5I,2.67
10,R5S,2.51
11,R5Y,2.76
12,R5K,2.49
13,R5V,2.42
14,R5L,2.5
15,R5P,4.15
16,R5T,2.54
17,R5H,2.62
18,R5A,2.31
19,R5W,2.41
20,R5C,2.83
21,R5N,2.63
22,R5F,2.52
23,R5G,3.15
24,R5M,2.64

row,Variant,protein stability index
1,R5D,3.01
2,R5Q,2.52
3,R5E,2.96
4,D13C,2.6
5,D13N,2.4
6,D13Q,2.47
7,D13H,2.38
8,D13F,2.62
9,D13A,2.66
10,D13L,2.58
11,D13T,2.47
12,D13K,2.71
13,D13P,2.3
14,D13V,2.75
15,D13M,2.53
16,D13S,2.52
17,D13E,2.72
18,D13R,2.04
19,D13W,2.71
20,D13Y,2.54
21,D13I,2.53
22,D13G,2.42
